From the nanobody polyreactivity screen of Harvey et al. (2022)

Test: yeast display, Sf9 membrane polyspecificity reagent, FACS + sequencing; frameworks hold sequencing errors
Method in brief: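 Sorting gates, low and high (top ~1%), were placed on anti-HA fluorescence to track expression and on streptavidin fluorescence to track reagent binding. A clone's polyreactivity label is taken from the gate it came out of. The reagent was 10% biotinylated, detergent-solubilized Sf9 membrane, applied for 1 hour at 4 °C to galactose-induced yeast display cells.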

Sequence | polyreactivity (PSR sort gate)
EEELVESGGGLVQAGGSLRLSCAASGRTFVYNAMGWYRQAPGTERELVAAITSGDSTYYADSVKGRFTISRDNAKNTVYLQMNSLKPEDTAVYYCATDYSGIFYWYDYWGQGTQVTVSS | low polyreactivity
QVQLVDSGGGLVQAGGSLRLSCAAYGLTFTYYDMGWYRQAPGNERELVATFSWSDSSTYADSVKGRFTISRDNAKNTVYLQMNSLKPEDTAVYYCNKVSYYTYDVDYWGQRTQVTVSS | low polyreactivity
QVHLVESGGGLVQAGGSLRLSCAASGSTFGYYAMGWYRQAPGKEREFVAAISSSGGSTYYADSVKGRFTISRDNAKNTVYLQMNSLKPEDTAVYYCARVGFPGFYWGQGTQVTVSS | high polyreactivity
QVQLVESGGGLVQAGGSLRLSCAASGIIFSSNAMGWYRPAPGKERELVAAISNTGRTNYADSVKGRFTISRDNEKNTVYLQMNSLKPEDTAVYYCDARLSRRYYSYYYWGQGTQVTVSS | high polyreactivity
QVQLVESRGGLVQAGGSLRLSCAASGSNFYRNALGWYRQAPGKERELVAAISSDGSTNYADSVKGRFTISRDNAKNTVYLQLNSLKPEDTAVYSCAPHDRWHHRSLPYEYWGQGTQVTVSS | low polyreactivity
QVQLVESGGGLVQAGGSLRLSCAASGSTFEYNAMGWYIQAPGKERELVASSTNYADSVKGRFTISRDNANNTVYLQMNSLKPEDTAVYYCAREQCVNRNHDYWGQGTQVTVSS | low polyreactivity
QVQLVESGGGLVQAGGSLRLSCAASGSIFFYYAMGRYRQARGKERQLVAAISYSDGTTYYADSVKGRFTISRDNAKNTVYLQMNSLKPEDTAVYYCAADLWVGLVTLWDGYVQYDYWGQGTQVTVSS | low polyreactivity
QVHLVESGGGLVQSGGSLRLTCAASGRTFSQYAMGWYRQAPWKERDLVAAISWSGGSTYYADSVKGRFTFSRDNAKNTVYLEMNSLKPEDTAVYYCAAVGKGSARSSYQVLYDYWGQGTQVNVSS | low polyreactivity
QVQLVESGGGLVQAGGSLRLSCAASGITFTTYAMGWYRQAPGKERELVATINRGSRTNYADSVKGRFTISRDNAKNTVYLQMNSLKAEDTAVYYCAAHYTTFIPSPDGDYLGQGTQVTVSS | low polyreactivity
QVQLVESGVGLVESGGSLRLSCASSGSTFVYTAMCWYRQSPGKERELVAAISWSGGSTYYADSVKGRFTISRDNAKKTVYLQMNSQKPEDTAVYYCAADGNPPAAMDYRGQGTQVTVSS | low polyreactivity
QVQLVESGGGLVQAGGSLRLSCAASGIISRVYAMGWYRQAPGKERELVAAITRRGSTTYYADSVKGRFTISRDNAKNTVYLQMNSLKPEDTAVYYCAALARYGPRYRGDYWGQGTQVTVSS | high polyreactivity
QVQHVESGGGLVQAGGSLRLSCAASGSTFWNKAMGWYRQAPGKEREFVAAITRSTTSTYYADSVKGRFTISRDNAKNTVYLQMNSLKPEDTAVYFCAADTDIVLYDYWGQGTQVTVSS | low polyreactivity
QVQLVESGGGLVQAGGRLRLSCSASGSIFVTYDMGWYRQAPGKERELVAGISGSGSTNYADSVKGRFTISRDNAKNTVYLQMNSLKPEDTAVYYCAAEYEYLWSQYLTDYGYDYWGQGTQVTVSS | low polyreactivity
QVQLVESGGGLVQAGGSLRISCAASGRSFWTYAMGWYRQAPGKERELVAAITWRGGSTSYADSVTGRFTISRDTAKNTVYLQMHSLKPEDTAVYYCAADTYSYLRGTYEYDYWGQGTQVTVSS | high polyreactivity
QVQLVESGGGLVQAGGSLRLSCAASGIIFSYNAMGWYRQAPGKERELVAAITSIGGRTYYADSVKGRFTISRDNAKNTVYLKMNSLKPEDCAVYYCAVVAAFYNSPEGDYWGQGTQVTVSS | low polyreactivity
QVQLVESGGGLVQSGGSLLLSCAPSGSTFYEYALGGYRQAPGKDRELVAAITSGGSTYYADSVKGRFTISRDNAKNNDYLQMNSLKPEETAVYYCAADPRIRRGDRSTHGYDYWGQGTQVTVSS | low polyreactivity
QVQLVESGGGLVQAGGSLRLSCAASGGTFAWYAMGWYRQAPGKERELVAAITSDGNTDYADSVKGRFTISRDNAKNTVYLQMNSLKPEDTAVYYCAADVQWRSAYDYTMGYWGQGTQVTVSS | low polyreactivity
QVQLVESGGGLVQAGGSLRLSCDASGRIFSPNTMGWYRQAPGKERELVAAISRGGSTYADSVKGRFTISRDNAKITVYLQMNSLKPEDTAVYYCNARYGRYYGAYEYWGQGTQVTVSS | high polyreactivity
QVQLVESGGGLVQAGGSLRLSCAASGGTFLRNAMGWYRQAPGKERELVAAISARGGSTRYADSVKGRFTISRDNAKNTVYLQMNSLKPEDTAVYYCDATSSHHRRMEYWGQGTQVTVSS | high polyreactivity
QVQLVESGGGLVQAGGSLRLSCAASGRIFTGNARGWYRQAPGKERELVAGISTSGGSTYYADSVKGRFTISRDNAKNTVYLQMTSLTPEDTAVYYCAAAYVHYVYKYDYWGQGTQVTVSS | high polyreactivity
QVQLVESGGGLVQAGGSLRLSCAASGSIFSYNAMGWDRQAPGKESELVAAITSGGGTNYADSVKGRFTISRDNAKNTVYLQINSLKPEDTAVYYCNAVPNYYDYDSWGQGTQVTVSS | high polyreactivity
QVQLVESGGGLDQAGGSLRLSCAASGRISYRYAMGSYRQAPGKEMELVASISSGVSTYYADSVKGRFTISRDNAKNTVYLQMHSLKPEDSAVYFCAAAYWFHNDYWGLGTQVTVSS | high polyreactivity

Sequence | polyreactivity (PSR sort gate)
QVQLVESGGGLVQAGGSLRLSCAASGNTFIYYAMGWYRQAPGKERELVAAISRSGGSTYYADSVKGRFTISRDNAKNTVYLQMNSLKPEDTAVYYCAAEATKWIGVVTMDYWGQGTQVTVSS | high polyreactivity
QVQLVESGGGLVPAGGSRRLSCAASGFTFGGYAMGWYRQAPGKETELVAAMRSSGDTTYDADSVKGRFTISRDNAKKTVNLQMNSLKPEDTAVYYCAARWGTYWGGLGGDPDIDYDDWGQGTQVTVSS | low polyreactivity
QVHLVESGGGLVQAGGSLRLSCAASGSIFSGNTMGWYRQAPGKERELVAAISGGGSTNYADSVKGRFTISRDNAKNTVYLQMNSLKPEDTAVYYCAKDWSLGASRMDYWGQGTQVTVSS | low polyreactivity
QVQLVESGGGLVQAGGSLRLSFAASGLIFSYYAMVWYRQAPGKERELVAAISSSGGSTYYADSVKGRFTISRDYAKNTVYLQMNSLKPEDTAVYYCARKLTRRFYQYDYWGQGTQVTVSS | high polyreactivity
QVQLVESGGRLVQAGGSLRLSCAASGRTFDFYAMGWYRQAPGKERELVAAISSRGGSTYYADSVKGRFTISRDNAKNTVYLQMNSLKPEDTAVYYCAKDLGYRGRYNYWGQGTQVTVSS | low polyreactivity
QVQLVESGGGLVQAGGSLRLSCAASGSTFHSYVMGWYRQAHGKERELVAAITSRGGSTNYADSVKGRFTISRDNAKNTVYLQMNSLKPEDTAVYYCAADGYWGWSYFRYDYWGQGTLVTVSS | low polyreactivity
QVQLVESGGGLVQAGGSLRLSCAASGRTFFVYTMGWYRQAPGKERELVAAITSDTSTTYADSVKGRFTISRDNAKNTVYLQMNSLKPEDTAVYYCAAEGYVGYYDYDYWGQGTQVTVSS | low polyreactivity
QVQLVESGGGLVQAGGSLRLSCAASGRIFTRYAMGWNRQAPGKETELGAAITASGGRTYYADSVKGRFTISRDNAKNTVYLQMNSLKPEDTAVYYCAATYHRYYETQDSYDYWGQGTQLTVSS | high polyreactivity
QVQLVESGGGLVQAGGSLRLSCAASGSTFGLNTMGWYRQAPGKERELVAGITWSGGTTYYADSVKGRFTISRDNAKNTVYLQMNSLKPEDTAVSYCAAAVSDHYWYSRAYYYWGQGTQVTVSS | high polyreactivity
QAQLQESGGSLVQAGGRLRLSCAASGYISVGSVMGWYRQAPSKERELVASIDQVANTNYADSVKGRFTISRDNAKNNVYLQMNSLKPEDTAVYYCATETTYILNYWGQVTQVTVSS | low polyreactivity
QVQLVESGGGLVQAGGSLRLSCAASGFNFGYNALGRYRQAPGKEREMVAAISSGGSTYYADSVKGRFTISRDNAKNTVYLQMNSLQPEDTAVYYCAVELGYPIQSYALWWDFEYWGQGTQVTGSS | low polyreactivity
QVQLVESGGGLVQAGGSLRLRSAASGGTIARYAMGWYRQATGKERELVAAITKSRDLTYYADSVKGRFTISRDSAKNTVYLQMNSLKPEDTAVYYCARPPSTGYQGGYDYWGQGTQVTVSS | high polyreactivity
QVQLVESGGGLVQAGGSLRLSCAASGITFKWYAMGWYRQAPGKERELVAAISWSTGSTYYADSVKGRFTISRDNAKNTVYLQMNSLKPEDTSVYYCAARVKRPQTGYDRRYGYWGQGTQVTVSS | high polyreactivity
QVQIVESGGGLVQAGGSLRISCAASGLIYSSYGMGWYRQAPGKERELVAAISSGGSTYYADSVKGRFSISRDNAKNTVYLQKKSLKPEDTAVYYCADGVLYPYWYSTYYPDCQYYYWGHGTQVTVSS | low polyreactivity
QVQLVESGGGLVQAGGSLRLSCAASGSIFDDNAMGWYRQAPGKERELVAGISRGGSTNYADSVKGRFTISRDNANNTVYLQMNSLKPEDTAVYYCNKRYKPSWTTYDYWGQGTQVTVSS | low polyreactivity
QVQIVESGGRIVQAGGSLRLSCAASGSTFGWYTMGWYRQSPGKESELVATISWRGGTTYYADSVKGRFTISRDNAKNTVYLQMNSLKPEDTAVYYCAARRYRASSRGYGYWGQGTQVTVSS | high polyreactivity
QVQLVESGGGLVQAGGSLRLSCAASGSTFSYNAMGWYRQAPGKERELVAAFSFISGSTYYADSVKGRFTISRDNAKNTVYLQMNSLKPEDTAVYFCAKRYRLRGRYDYWGQGTQVTVSS | high polyreactivity
QVQIVESGGGLVQAGGSLRLTCAASGGIFARYTMGWYRQAPGKERELVATITSGGGTNYADSVKGRFTISRDNAKNTVYLQMISLKPEDTAVYYCAASPRAVSYGPDDRQQYDYWGQGSQVTVSS | low polyreactivity
QVQLVESGGVLVQAGGSLRLSCAASVGIFDYYTMGWYRQAPGKERELVAAISASGGITYYADSVKGRFTISRDNANNTVYLQMNSMKPEDTAVYYCAAGVRNDYWWYYYWGQGTQVTVSS | high polyreactivity
QVQLVESGGGLVQAGGSLRLSCAASGNIFRNNAMGWYRQAPGKERELVAAISRGGSTYYADSVKGRFTISRDNAKNTVYLQMNSLKPEDTAVYYCNKYSSRAYNYWGQGTHVTVSS | high polyreactivity
QVQLVESGGGLVQAGGSLRLSCAASGRIFAVNAMGWYRQAPGKERELVAAINGGGSTNYADSVKGRFTISRDNAKNTVYLQMNSLKPEDTAVYYCAADVGWRSQTRGYYWGQGTQVTVSS | high polyreactivity
